The test system of test [1] is MM1S MM cells. Kind of test: Disseminated MM xenograft survival model (MM1S). Format: in vivo, SCID animals. The conditions noted are these: 0.1 mg/kg SEA-BCMA weekly x5 IP and/or 0.01 mg/kg SGN-CD48A once IP; N=8/group; FIG. 21A. The procedure: MM1S MM cells were injected IV into SCID animals, which contain active innate immune effector cells to mediate ADCP and ADCC. Seven days post implant, dosing was initiated with 0.1 mg/kg SEA-BCMA and/or 0.01 mg/kg SGN-CD48A, and animals were monitored for survival. SEA-BCMA was dosed weekly for 5 weeks IP and SGN-CD48A was dosed once IP. Animals were followed for 160 days for survival (N=8/group). By day 51, all untreated animals had been humanely euthanized according to IACUC protocols.

Test [2] has as its system Farage cells. Format: in vivo. The conditions noted are these: single agent, SEA-CD70 3 mg/kg or SGN-35 1 mg/kg.
For test [3], the target named is T1, human FcγRIIIa (Homo sapiens, UniProt P08637).
T1 construct: expressed in transfected cells; host or cells: CHO cells
The experiment in a line: FcγR binding by flow cytometry on transfected CHO cells. The conditions noted are these: FIG. 11B-D. The procedure:
(§1) CHO cells were incubated with increasing concentrations of antibodies and a secondary antibody used to assess binding as monitored by flow cytometry.
(§2) For each cell line, 50 million cells were washed once in 50 mL of PBS. Cells were counted again and resuspended at 2.2 million cells/mL in BD stain buffer. Cells were plated in a 96-well round bottom plate at 0.1 mL of cells per well.
(§3) Antibody solutions were diluted to make the following final concentrations: 3 mg/mL, 1 mg/mL, 0.3 mg/mL, 0.1 mg/mL, 0.03 mg/mL, 0.01 mg/mL, 0.003 mg/mL, 0.001 mg/mL, 0.0003 mg/mL. Each antibody solution was diluted at 10×(i.e., […] of media) to produce the following concentrations: 300, 100, 30, 10, 3, 1, […] μg/ml. Media was removed from the cells and the cells were washed with media. 100 μL of antibody solution was added to each well. Antibody solutions were added with decreasing concentrations in the vertical direction. […]
(§4) Next, PE conjugated anti-human IgG Fc antibody was prepared (1/50 dilution of 1 mg/ml concentration=[…] saturating concentration) in BD stain buffer. […] Cells were resuspended in PBS+1% paraformaldehyde and kept at 4° C. until they were analyzed by flow cytometry. Samples were analyzed using the Attune flow cytometer. […]
(In general: Flow cytometry measures light scatter and fluorescence of single cells or particles in a stream.)

For test [4], the target named is T2, human FcγRIIb (Homo sapiens, UniProt P31994).
T2 construct: expressed in transfected cells; host or cells: CHO cells
T2 sequence (P31994 43-310): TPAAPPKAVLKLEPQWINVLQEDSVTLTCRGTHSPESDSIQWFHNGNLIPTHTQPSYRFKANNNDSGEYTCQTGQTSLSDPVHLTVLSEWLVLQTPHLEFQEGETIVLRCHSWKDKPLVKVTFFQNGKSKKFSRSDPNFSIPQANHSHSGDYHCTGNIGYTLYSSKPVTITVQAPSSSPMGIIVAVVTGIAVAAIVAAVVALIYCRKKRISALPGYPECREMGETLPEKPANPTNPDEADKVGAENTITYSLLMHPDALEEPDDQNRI
Described as above. Conditions: FIG. 11B-D. The protocol:
as §1, §2, §3, §4

T1 sequence (P08637 17-254): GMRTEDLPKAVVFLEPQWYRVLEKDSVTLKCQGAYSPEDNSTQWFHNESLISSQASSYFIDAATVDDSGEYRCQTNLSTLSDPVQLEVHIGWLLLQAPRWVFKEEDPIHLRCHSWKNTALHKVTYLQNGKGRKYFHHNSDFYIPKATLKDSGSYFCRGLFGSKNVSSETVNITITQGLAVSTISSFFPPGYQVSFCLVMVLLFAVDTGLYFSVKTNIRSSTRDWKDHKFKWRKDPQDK

B1: SEA-BCMA: nonfucosylated antibody targeting B-cell maturation antigen (BCMA); VH and VL of SEQ ID NOs: 45 and 46 (antibody, V domains shown)
VH: QVQLVQSGAEVKKPGASVKLSCKASGYTFTDYYIHWVRQAPGQGLEWIGYINPNSGYTNYAQKFQGRATMTADKSINTAYVELSRLRSDDTAVYFCTRYMWERVTGFFDFWGQGTMVTVSS
VL: DIQMTQSPSSVSASVGDRVTITCLASEDISDDLAWYQQKPGKAPKVLVYTTSSLQSGVPSRFSGSGSGTDFTLTISSLQPEDFATYFCQQTYKFPPTFGGGTKVEIK
modifications: nonfucosylated; SGN-BCMA heavy chain variable region; SGN-BCMA light chain variable region
Regarding B1, the “animals alive by day 160” value in test [1] was “zero”.

B2: SEA-CD70: nonfucosylated antibody targeting the CD70 antigen; VH and VL of SEQ ID NOs: 41 and 42 (antibody, V domains shown)
VH: QVQLVQSGAEVKKPGASVKVSCKASGYTFTNYGMNWVRQAPGQGLKWMGWINTYTGEPTYADAFKGRVTMTRDTSISTAYMELSRLRSDDTAVYYCARDYGDYGMDYWGQGTTVTVSS
VL: DIVMTQSPDSLAVSLGERATINCRASKSVSTSGYSFMHWYQQKPGQPPKLLIYLASNLESGVPDRFSGSGSGTDFTLTISSLQAEDVAVYYCQHSREVPWTFGQGTKVEIK
modifications: nonfucosylated; SEA-CD70 heavy chain variable region; SGN-CD70 light chain variable region
For B2, the “day at which tumors reached an average 5 fold increase of original size” value in test [2] (day post implant, untreated 28.5) was 34.5 days. Besides, the “days post treatment at which tumors reached an average 5 fold increase” value in test [2] (untreated 9.5) was 15.5 days post treatment.

B3: SEA-CD40: nonfucosylated, humanized version of murine S2C6 anti-CD40; VH and VL of SEQ ID NOs: 28 and 29 (antibody, V domains shown)
VH: EVQLVESGGGLVQPGGSLRLSCAASGYSFTGYYIHWVRQAPGKGLEWVARVIPNAGGTSYNQKFKGRFTLSVDNSKNTAYLQMNSLRAEDTAVYYCAREGIYWWGQGTLVTVSS
VL: DIQMTQSPSSLSASVGDRVTITCRSSQSLVHSNGNTFLHWYQQKPGKAPKLLIYTVSNRFSGVPSRFSGSGSGTDFTLTISSLQPEDFATYFCSQTTHVPWTFGQGTKVEIK
modifications: nonfucosylated; VH of SEA-CD40; VL of SEA-CD40
Regarding B3, the “affinity for FcγRIIIa (rank among CD40 antibodies tested)” value in test [3] is “highest affinity”. Also, the “affinity for FcγRIIb (rank among CD40 antibodies tested)” value in test [4] is on record as “lowest affinity”.

(Values after patent US20230270877A1, “Combination Therapy” (Seagen Inc., priority 2020, published 2023).)
